Legend:
[1] = target: the molecule itself; assay: crystal structure; native apo enzyme; crystals from 50 mM PIPES pH 6.5, 50% ammonium sulfate, room temperature; P212121, two subunits in the asymmetric unit; 1.9 A
[2] = target: the molecule itself; assay: crystal structure; overexpressed enzyme co-crystallised with 20 mM FMN, 5 mM NADH, 5 mM (-)-camphor; 100 mM HEPES pH 7.0, 20% PEG 3350, 18 C; P212121, one dimer in the asymmetric unit; 1.9 A

B1: native 3,6-diketocamphane 1,6-monooxygenase, oxygenating component (enzyme, Pseudomonas putida NCIMB 10007, UniProt D7UER1 1-378, looked up)
chain: MAMETGLIFHPYMRPGRSARQTFDWGIKSAVQADSVGIDSMMISEHASQIWENIPNPELLIAAAALQTKNIKFAPMAHLLPHQHPAKLATMIGWLSQILEGRYFLGIGAGAYPQASYMHGIRNAGQSNTATGGEETKNLNDMVRESLFIMEKIWKREPFFHEGKYWDAGYPEELEGEEGDEQHKLADFSPWGGKAPEIAVTGFSYNSPSMRLAGERNFKPVSIFSGLDALKRHWEVYSEAAIEAGHTPDRSRHAVSHTVFCADTDKEAKRLVMEGPIGYCFERYLIPIWRRFGMMDGYAKDAGIDPVDADLEFLVDNVFLVGSPDTVTEKINALFEATGGWGTLQVEAHDYYDDPAPWFQSLELISKEVAPKILLPKR
notes: 3,6-diketocamphane 1,6-monooxygenase (3,6-DKMO; EC 1.14.13.-), oxygenating component, encoded on the CAM plasmid of Pseudomonas putida NCIMB 10007; monomer 42.3 kDa; residues up to 378 are numbered in the model (A1, A128-133, A176-180, A377-378, B1, B127-135, B176-179 not modelled); also called 3,6-DKMO; native 3,6-DKMO
stoichiometry N [1]: 2

B2: recombinant (overexpressed) 3,6-diketocamphane 1,6-monooxygenase, oxygenating component, N-terminally hexahistidine-tagged (enzyme, Pseudomonas putida)
chain: B1 chain
notes: 3,6-diketocamphane 1,6-monooxygenase (3,6-DKMO), oxygenating component, the 3,6-DKMO gene of the CAM plasmid of Pseudomonas putida in pET-28b; residues A126-135, A176-179, A377-378, B125-135, B176-179 not modelled in the FMN complex; Crystallised with 20 mM FMN, 5 mM NADH and 5 mM (-)-camphor; only FMN (occupancy 0.6) seen; also called overexpressed 3,6-DKMO; recombinant 3,6-DKMO; source: E. coli …
stoichiometry N [2]: 2

— paper PMC4631483, “The oxygenating constituent of 3,6-diketocamphane monooxygenase from the CAM plasmid of Pseudomonas putida: the first crystal structure of a type II Baeyer–Villiger monooxygenase” (Acta Crystallographica Section D: Biological Crystallography, 2015)
